Consider three molecules from US20240239878A1 (SHANGHAI QILU PHARMACEUTICAL RESEARCH AND DEVELOPMENT CENTRE, published 2024).

Assay [1] concerns the target T1, human DLL3 antigen protein (Kactus Biosystems, Cat. No. DLL-HM103) (human, UniProt Q9NYJ7 27-492).
T1 sequence: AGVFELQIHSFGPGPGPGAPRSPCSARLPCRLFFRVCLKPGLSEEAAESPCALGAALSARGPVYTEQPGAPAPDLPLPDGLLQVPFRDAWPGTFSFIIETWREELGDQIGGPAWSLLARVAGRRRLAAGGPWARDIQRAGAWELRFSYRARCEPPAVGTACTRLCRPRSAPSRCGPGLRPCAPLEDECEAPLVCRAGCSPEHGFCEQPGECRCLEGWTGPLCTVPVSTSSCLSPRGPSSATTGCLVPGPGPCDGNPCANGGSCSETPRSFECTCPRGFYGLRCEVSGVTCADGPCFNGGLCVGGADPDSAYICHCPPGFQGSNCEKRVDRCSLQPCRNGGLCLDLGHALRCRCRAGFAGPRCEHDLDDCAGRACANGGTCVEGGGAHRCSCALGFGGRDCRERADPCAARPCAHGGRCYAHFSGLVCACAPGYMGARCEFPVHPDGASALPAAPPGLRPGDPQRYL
Description: SPR (Biacore 8K), antibody captured on anti-human Fc, DLL3 in solution. The procedure: The affinity and kinetic properties of the humanized anti-DLL3 antibody to human DLL3 were analyzed using a Biacore 8K instrument. CM5 chips were activated with EDC and NHS, followed by immobilization of anti-human Fc murine mAb and blocked with ethanolamine.
Human DLL3 was diluted two-fold serially to serial concentrations (100 nM-0.39 nM) and associated for 90 s and dissociated for 600 s at a flow rate of 50 μL/min.
After completion of each round of the experiment, the captured antibody was removed together with the antigen by washing with a 3M MgCl₂ solution at a flow rate of 30 μL/min for 30 s to complete the regeneration of the chip. The raw data were analyzed using Biacore Insight Evaluation Software (3.0.12.15655) software and fitted with a (1:1) Langmuir model with.
In general terms: In SPR one partner is held on a chip, and binding of the other changes the refractive index at the surface.

Assay [2] deals with T2, human DLL3 on SHP-77 cells (human, UniProt Q9NYJ7 27-618).
T2 construct: also called DLL3-expressing cells (SHP-77)
T2 sequence: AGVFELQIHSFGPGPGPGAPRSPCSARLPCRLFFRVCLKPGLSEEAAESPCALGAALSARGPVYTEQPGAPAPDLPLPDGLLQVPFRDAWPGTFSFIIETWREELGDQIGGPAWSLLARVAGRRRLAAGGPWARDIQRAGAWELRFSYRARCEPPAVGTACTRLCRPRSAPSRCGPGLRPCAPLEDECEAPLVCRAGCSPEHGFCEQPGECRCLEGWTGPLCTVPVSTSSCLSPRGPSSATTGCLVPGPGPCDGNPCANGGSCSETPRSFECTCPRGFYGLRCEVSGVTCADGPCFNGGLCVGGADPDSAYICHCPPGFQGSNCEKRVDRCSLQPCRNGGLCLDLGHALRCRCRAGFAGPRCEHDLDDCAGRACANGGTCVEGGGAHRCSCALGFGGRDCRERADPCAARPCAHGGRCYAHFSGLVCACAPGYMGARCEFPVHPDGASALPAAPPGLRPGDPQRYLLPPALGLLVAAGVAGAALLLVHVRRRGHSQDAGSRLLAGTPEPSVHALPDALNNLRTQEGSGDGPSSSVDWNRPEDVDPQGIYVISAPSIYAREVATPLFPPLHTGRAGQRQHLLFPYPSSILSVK
Description: flow cytometry, SHP-77 cells. The method, then:
SHP-77 cells were cultured. The culture medium for SHP-77 cells was RPMI1640+10% FBS. The cells were cultured in a T75 cell culture flask at a 37° C. 5% CO₂ incubator. When using cells, they are washed with sterile DPBS, digested with 0.25% trypsin EDTA for about 5 minutes, and then stopped with a complete medium.
(§1) The digested cells were centrifuged at 1000 rpm for 5 min at room temperature. The supernatant was discarded and the cells were resuspended in 100 μL of 1% BSA (in PBS). The cells were counted and adjusted to a cell density of 1E6/m. The dilute cells were plated in a 96-well round-bottom culture plate (corning 3799), and centrifuged at 1500 rpm for 5 min at 4° C. The supernatant was discarded and the cells were stored at 4° C. until use. Antibody samples to be tested were diluted with 1% BSA (in PBS) at a starting concentration of 100 nM, downwards by a 10-fold gradient for 7 concentrations. The cells were resuspended with the diluted antibody at 100 μL/well and incubated for 1 hour at 4° C. The cells were centrifuged at 1500 rpm for 5 minutes at 4° C. and the supernatant was discarded. The cells were resuspended and washed with 160 μL of 1% BSA (in PBS), centrifuged at 1500 rpm for 5 minutes at 4° C. The supernatant was discarded. The secondary antibody (goat anti human IgG Fc PE) was diluted 1:200 with 1% BSA (in PBS) according to the manufacturer's instructions and the cells were resuspended with the diluted secondary antibody, 100 µL/well, and incubated for 0.5 h at 4° C. The cells were centrifuged at 1500 rpm for 5 minutes at 4° C. and the supernatant was discarded. The cells were resuspended and washed with 160 μL of 1% BSA (in PBS), centrifuged at 1500 rpm for 5 minutes at 4° C. The supernatant was discarded. The cells were resuspended in 100 μL of 1% BSA (in PBS), and filtered across a 300 mesh gauze. The mean fluorescence intensity of the PE channels was measured by flow cytometry.
(§2) The analyzed mean fluorescence intensity was imported into Graphpad to analyze the median-binding concentration (hereinafter referred to as EC50) of antibody and cell and the top mean fluorescence intensity (Top MFI).

Assay [3] deals with T3, Cynomolgus monkey DLL3 on HEK293 cells (HEK293-cyno DLL3) (Cynomolgus monkey, UniProt Q9NYJ7 27-618 (human entry)).
T3 chain: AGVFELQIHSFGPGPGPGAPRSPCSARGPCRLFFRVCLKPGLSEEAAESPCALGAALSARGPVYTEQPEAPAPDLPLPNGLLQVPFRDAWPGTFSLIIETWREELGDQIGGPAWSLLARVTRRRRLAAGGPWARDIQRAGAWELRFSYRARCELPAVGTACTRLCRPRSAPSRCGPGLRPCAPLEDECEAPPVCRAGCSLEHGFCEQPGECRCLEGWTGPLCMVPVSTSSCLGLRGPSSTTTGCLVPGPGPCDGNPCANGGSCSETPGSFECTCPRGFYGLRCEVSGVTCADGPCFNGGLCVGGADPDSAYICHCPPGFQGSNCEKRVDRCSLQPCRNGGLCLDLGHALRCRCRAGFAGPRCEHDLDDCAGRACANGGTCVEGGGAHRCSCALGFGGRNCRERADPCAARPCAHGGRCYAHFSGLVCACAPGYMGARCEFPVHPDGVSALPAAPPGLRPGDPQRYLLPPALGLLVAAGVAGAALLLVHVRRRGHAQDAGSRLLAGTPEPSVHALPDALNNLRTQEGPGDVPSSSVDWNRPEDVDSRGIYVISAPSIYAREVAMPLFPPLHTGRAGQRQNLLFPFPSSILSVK
Put plainly: flow cytometry, HEK293-cyno DLL3 cells. The procedure: (§3) Monoclonal selection was performed, and the expression level of DLL3 protein in the monoclonal cells were identified by flow cytometry. The culture was expanded and stored in storage for later use. SHP-77 and HEK293-cyno DLL3 cells were cultured. The culture medium for SHP-77 cells were RPMI1640+10% FBS, and the culture medium for HEK293 cyno DLL3 cells were DMEM+10% FBS+200 μg/ml Hygromycin. The cells were cultured in a T75 cell culture flask at a 37° ° C. in a 5% CO₂ incubator. When using cells, they are washed with sterile DPBS, digested with 0.25% trypsin EDTA for about 5 minutes, and then stopped with a complete medium.
as §1, with “seeded” for “plated”, “antibody.” for “antibody,”, “μL/well,” for “µL/well,”

For assay [4], the target named is T2, human DLL3 on SHP-77 cells. Description: flow cytometry, SHP-77 cells. The method, then: as §3
as §1, with “seeded” for “plated”, “antibody.” for “antibody,”, “μL/well,” for “µL/well,”
The source holds these as a separate data set. In general terms: In flow cytometry, cells or beads pass a laser one at a time.

Assay [5] concerns the target T2, human DLL3 on SHP-77 cells. Put plainly: flow cytometry, SHP-77 cells. The method, then: (§4) SHP-77 and HEK293-cyno DLL3 cells were cultured. The culture medium for SHP-77 cells were RPMI1640+10% FBS, and the culture medium for HEK293 cyno DLL3 cells were DMEM+10% FBS+200 μg/ml Hygromycin. The cells were cultured in a T75 cell culture flask at a 37° C. 5% CO₂ incubator. When using cells, they are washed with sterile DPBS, digested with 0.25% trypsin EDTA for about 5 minutes, and then stopped with a complete medium.
as §1, with “seeded” for “plated”, “μL/well,” for “µL/well,”
as §2
This is another data set of the same source.

Assay [6] has as its target T3, Cynomolgus monkey DLL3 on HEK293 cells …. Put plainly: flow cytometry, HEK293-cyno DLL3 cells. The method, then: as §4
as §1, with “seeded” for “plated”, “μL/well,” for “µL/well,”
as §2

Like-named read-outs stand apart in the source and are kept apart here.

B1: H-46A5A4 mouse hybridoma-derived humanized anti-DLL3 antibody (antibody, V domains shown)
VH: QVQLVQSGAEVKKPGASVKVSCKASGYTFTDHTIHWVRQAPGQGLEWMGYIYPRDGYTMYNEKFKGRVTMTRDTSTSTVYMELSSLRSEDTAVYYCARAFHALDYWGQGTLVTVSS
VL: DIQMTQSPSSLSASVGDRVTITCSASQGISNYLNWYQQKPGKAPKLLIYYTSSLHSGVPSRFSGSGSGTDFTFTISSLQPEDIATYYCQQYSKLPYTFGGGTKLEIK
The term Kd denotes the constant that tells how readily two partners part at equilibrium. What is called koff is a measure of how fast the partners let go of each other. Broadly, the kon is a measure of how fast the partners come together. As usually defined, the EC50 is the concentration that produces a half-maximal response. In assay [1], B1 registered a Kd of 0.811 nM, a koff of 0.000178 s⁻¹ and a kon of 219000 M⁻¹ s⁻¹. Also, in assay [2], the EC50 stood at 1.35 nM and the “Top MFI” value stood at 1520 MFI.

B2: DLL3-12 camelid-derived anti-DLL3 chimeric antibody (antibody, human IgG1, V domains shown)
VH: QVQLVESGGGLVQPGESLRLSCAGSGFAFSSYDMHWVRQAPGKDFEWVSSISRDGRGPRYADFVKGRFTISKDNGRNMLYLQLNSLEIEDTAMYYCSKGYPIMGGTTQGTQVTVSS
Turning to B2, the EC50 in assay [3] came to 0.073 nM; in assay [4] it was 0.092 nM; in assay [5], 0.114 nM; in assay [6], 1.38 nM. For the same molecule, the “Top MFI” value was determined as 220 MFI in assay [3], 886 MFI in assay [4], 935 MFI in assay [5] and 232 MFI in assay [6].

B3: DLL3-276 camelid-derived anti-DLL3 chimeric antibody (antibody, human IgG1, V domains shown)
VH: QVQLVESGGGSVQAGGSLNLSCATSGSTASTTYMGWFRQAPGKGREGVAIIYTARDNPWYANSVKGRFIISQDNAKKTLYLQMNTLKPEDTATYYCAATLANPTRTAWGQGTLVTVSS
Turning to B3, the EC50 in assay [3] came to 0.897 nM; in assay [4] it was 0.374 nM; in assay [5] it was 0.396 nM; in assay [6], 2.08 nM. Further, the “Top MFI” value in assay [3] stood at 175 MFI; in assay [4], 763 MFI; in assay [5] it was 782 MFI; in assay [6], 179 MFI.
